Data as given in paper PMC4499121.
Where a chain is given by its changes, count along the chain named.

T1: Interleukin 10 receptor alpha chain, Fc fusion (human, UniProt Q13651 22-235)
T1 sequence: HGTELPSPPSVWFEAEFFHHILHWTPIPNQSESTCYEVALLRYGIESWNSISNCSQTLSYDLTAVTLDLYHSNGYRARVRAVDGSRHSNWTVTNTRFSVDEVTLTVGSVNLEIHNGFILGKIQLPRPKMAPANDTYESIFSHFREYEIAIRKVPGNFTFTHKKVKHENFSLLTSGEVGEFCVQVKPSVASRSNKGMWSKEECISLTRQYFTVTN

B1: cluster 1 Mutant 1 (ssRNA)
RNA: GGGAGAGAGGAAGAGGGAUGGGUAACACUCGAUUCUCCUAGCCCUCUAGAAAUUCCCCUCCCCGACGACUCGCUGAGAUCGAGA
modifications: DuraScribe IVT transcript (2'-F pyrimidines implied by the kit, not stated)
B2: cluster 1 Mutant 2 (ssRNA)
RNA: B1 RNA with G41U, U45G
modifications: DuraScribe IVT transcript (2'-F pyrimidines implied by the kit, not stated)

Columns and labels:
[1] = molecular target: T1, Interleukin 10 receptor alpha chain, Fc …; assay: double filter binding; text: mutant with highest change in affinity; Fig 3D legend gives that to Mutant 2; Binding buffer (composition and pH not given), 37 C, 5' 32P RNA with a range of protein concentrations, nitrocellulose/nylon double filter; Kd = protein concent
[2] = molecular target: T1, Interleukin 10 receptor alpha chain, Fc …; assay: double filter binding; improved relative to cluster 1 seed; Binding buffer (composition and pH not given), 37 C, 5' 32P RNA with a range of protein concentrations, nitrocellulose/nylon double filter; Kd = protein concent

Binder	Kd [1] [nM]	binding result [2]
B1	27	–
B2	–	binds
